Earlier results on 1 substance are cited in article PMC7611479.

Data set [1] deals with uroguanylin (Homo sapiens) (UniProt Q16661).
Data set [2] addresses guanylin (Homo sapiens) (UniProt Q02747).

Regarding GC-C ECD (from UniProt P25092), the values for the Kd in data set [1] and in data set [2] were 1 nM and 10 nM, respectively.

For orientation: Kd means the constant that tells how readily two partners part at equilibrium.
